Experimental data reported in patent US20040005550A1, “Methods and compositions useful for targeting activated vitronectin receptor alphavbeta3” (The Scripps Research Institute, priority 1998, published 2004).

Tests used:
[1] = target: human αvβ3 integrin on cells (human) (UniProt P06756); assay: flow cytometry, AP5-treated αvβ3-CHO cells; 1 µM Integrilin against WOW-1 Fab
[2] = target: human αvβ3 integrin on cells (human) (UniProt P06756); assay: flow cytometry, AP5-treated αvβ3-CHO cells; 1 µM Integrilin against aPB
[3] = target: purified αIIbβ3 from human platelets (human) (UniProt P08514); assay: ELISA on purified integrin, 50 µM MnCl2; half-maximal binding
[4] = target: human αvβ3 integrin on cells (human) (UniProt P06756); assay: flow cytometry, JY cells, 100 nM phorbol myristate acetate for 15 min
[5] = target: human αvβ3 integrin on cells (human) (UniProt P06756); assay: flow cytometry binding isotherm, unstimulated JY cells, one-site fit
[6] = target: human αvβ3 integrin on cells (human) (UniProt P06756); assay: flow cytometry binding isotherm, αvβ3-CHO cells, no treatment
[7] = target: human αvβ3 integrin on cells (human) (UniProt P06756); assay: flow cytometry binding isotherms, JY cells
[8] = target: purified αvβ3 receptors from human placenta (human) (UniProt P06756); assay: ELISA on purified integrin, 50 µM MnCl2; half-maximal binding
[9] = target: human αvβ3 integrin on cells (human) (UniProt P06756); assay: flow cytometry binding isotherm, αvβ3-CHO cells, activating antibody AP5
[10] = target: human αvβ3 integrin on cells (human) (UniProt P06756); assay: unstimulated B-lymphoblastoid cells; summary in the description, differs from the 2,600 nM of Example 8
[11] = target: human αvβ3 integrin on cells (human) (UniProt P06756); assay: flow cytometry binding isotherm, JY cells stimulated with phorbol myristate acetate, one-site fit

human αvβ3 integrin on cells (human), sequence (P06756 31-1048, chain 1 of 2): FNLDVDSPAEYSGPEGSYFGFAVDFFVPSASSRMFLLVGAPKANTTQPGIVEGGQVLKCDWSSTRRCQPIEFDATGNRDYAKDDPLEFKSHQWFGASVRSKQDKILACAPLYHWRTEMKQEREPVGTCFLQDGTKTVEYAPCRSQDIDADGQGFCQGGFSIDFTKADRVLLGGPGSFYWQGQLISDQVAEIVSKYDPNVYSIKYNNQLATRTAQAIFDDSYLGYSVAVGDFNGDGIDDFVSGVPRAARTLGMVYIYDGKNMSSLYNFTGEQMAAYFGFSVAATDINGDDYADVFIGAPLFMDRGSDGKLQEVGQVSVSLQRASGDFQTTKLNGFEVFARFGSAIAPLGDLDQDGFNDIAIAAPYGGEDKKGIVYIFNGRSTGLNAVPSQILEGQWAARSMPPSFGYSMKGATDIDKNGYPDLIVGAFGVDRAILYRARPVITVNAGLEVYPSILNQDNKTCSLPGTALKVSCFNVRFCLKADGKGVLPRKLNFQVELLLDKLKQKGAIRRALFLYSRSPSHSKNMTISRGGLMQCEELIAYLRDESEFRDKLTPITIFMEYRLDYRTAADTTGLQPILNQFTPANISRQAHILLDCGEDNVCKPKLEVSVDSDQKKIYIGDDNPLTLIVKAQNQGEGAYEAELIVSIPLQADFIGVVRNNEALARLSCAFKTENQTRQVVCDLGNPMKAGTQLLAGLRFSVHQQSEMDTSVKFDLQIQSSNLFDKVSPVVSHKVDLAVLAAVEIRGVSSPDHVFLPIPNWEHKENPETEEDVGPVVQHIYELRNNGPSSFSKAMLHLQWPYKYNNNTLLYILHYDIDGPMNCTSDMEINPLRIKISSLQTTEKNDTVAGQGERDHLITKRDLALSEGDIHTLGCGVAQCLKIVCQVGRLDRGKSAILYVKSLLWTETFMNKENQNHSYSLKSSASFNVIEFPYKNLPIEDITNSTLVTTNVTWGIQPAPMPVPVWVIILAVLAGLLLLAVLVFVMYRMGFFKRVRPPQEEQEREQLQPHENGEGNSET
human αvβ3 integrin on cells (human), sequence (P05106 27-788, chain 2 of 2, further chain): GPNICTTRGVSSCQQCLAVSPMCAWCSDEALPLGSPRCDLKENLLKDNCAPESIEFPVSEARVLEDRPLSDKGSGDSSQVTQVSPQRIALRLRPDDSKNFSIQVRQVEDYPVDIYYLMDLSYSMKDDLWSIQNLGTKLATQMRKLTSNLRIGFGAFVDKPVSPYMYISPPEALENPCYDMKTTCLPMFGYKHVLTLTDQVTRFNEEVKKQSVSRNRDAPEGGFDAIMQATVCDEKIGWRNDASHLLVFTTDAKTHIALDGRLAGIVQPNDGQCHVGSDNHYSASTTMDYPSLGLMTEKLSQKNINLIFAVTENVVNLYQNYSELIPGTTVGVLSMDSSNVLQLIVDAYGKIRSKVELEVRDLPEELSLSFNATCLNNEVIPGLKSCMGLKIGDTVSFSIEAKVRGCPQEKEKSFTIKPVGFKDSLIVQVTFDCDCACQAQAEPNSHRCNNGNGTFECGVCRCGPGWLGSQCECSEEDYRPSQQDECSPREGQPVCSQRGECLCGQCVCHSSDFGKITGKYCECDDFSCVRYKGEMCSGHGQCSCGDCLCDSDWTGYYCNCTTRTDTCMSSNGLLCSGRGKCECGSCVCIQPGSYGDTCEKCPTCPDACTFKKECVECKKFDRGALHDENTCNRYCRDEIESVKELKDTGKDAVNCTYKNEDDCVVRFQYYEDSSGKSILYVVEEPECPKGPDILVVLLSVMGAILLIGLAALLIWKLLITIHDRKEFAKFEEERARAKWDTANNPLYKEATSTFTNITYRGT
purified αvβ3 receptors from human placenta (human), sequence (P06756 31-1048 limits assumed, chain 1 of 2): as the sequence (P06756 31-1048, chain 1 of 2) above
purified αvβ3 receptors from human placenta (human), sequence (P05106 27-788 limits assumed, chain 2 of 2, further chain): as the sequence (P05106 27-788, chain 2 of 2, further chain) above

For Integrilin (peptide), the percent inhibition of WOW-1 Fab binding [1] was less than 20% and the percent inhibition of aPB binding [2] was less than 20%.

With PAC1 Fab the EC50 [3] was 50 nM.

Substance WOW-1 Fab has a fold increase in specific binding with phorbol myristate acetate against no agonist [4] of 2.4 fold, a Kd [5] of 2600 nM and a maximal binding (arbitrary fluorescence units) [5] of 24.8. For the same substance, the Bmax [6] was 62 units, the Kd [6] was 514 nM and the fold increase in binding affinity with phorbol myristate acetate against unstimulated cells [7] was greater than 30 fold. It also gave an EC50 [8] of 40 nM, a Bmax [9] of 65 units and a Kd [9] of 119 nM. For the same substance, the Kd [10] was 2400 nM, the Kd [11] was 80 nM and the maximal binding [11] was 23.5 units.
